Measurements published in US20200261595A1.

Target: insulin receptor of isolated rat adipocytes (rat) (UniProt P15127)
Test: cell-based or functional assay

Sequence of insulin receptor of isolated rat adipocytes (rat) (P15127 27-1383): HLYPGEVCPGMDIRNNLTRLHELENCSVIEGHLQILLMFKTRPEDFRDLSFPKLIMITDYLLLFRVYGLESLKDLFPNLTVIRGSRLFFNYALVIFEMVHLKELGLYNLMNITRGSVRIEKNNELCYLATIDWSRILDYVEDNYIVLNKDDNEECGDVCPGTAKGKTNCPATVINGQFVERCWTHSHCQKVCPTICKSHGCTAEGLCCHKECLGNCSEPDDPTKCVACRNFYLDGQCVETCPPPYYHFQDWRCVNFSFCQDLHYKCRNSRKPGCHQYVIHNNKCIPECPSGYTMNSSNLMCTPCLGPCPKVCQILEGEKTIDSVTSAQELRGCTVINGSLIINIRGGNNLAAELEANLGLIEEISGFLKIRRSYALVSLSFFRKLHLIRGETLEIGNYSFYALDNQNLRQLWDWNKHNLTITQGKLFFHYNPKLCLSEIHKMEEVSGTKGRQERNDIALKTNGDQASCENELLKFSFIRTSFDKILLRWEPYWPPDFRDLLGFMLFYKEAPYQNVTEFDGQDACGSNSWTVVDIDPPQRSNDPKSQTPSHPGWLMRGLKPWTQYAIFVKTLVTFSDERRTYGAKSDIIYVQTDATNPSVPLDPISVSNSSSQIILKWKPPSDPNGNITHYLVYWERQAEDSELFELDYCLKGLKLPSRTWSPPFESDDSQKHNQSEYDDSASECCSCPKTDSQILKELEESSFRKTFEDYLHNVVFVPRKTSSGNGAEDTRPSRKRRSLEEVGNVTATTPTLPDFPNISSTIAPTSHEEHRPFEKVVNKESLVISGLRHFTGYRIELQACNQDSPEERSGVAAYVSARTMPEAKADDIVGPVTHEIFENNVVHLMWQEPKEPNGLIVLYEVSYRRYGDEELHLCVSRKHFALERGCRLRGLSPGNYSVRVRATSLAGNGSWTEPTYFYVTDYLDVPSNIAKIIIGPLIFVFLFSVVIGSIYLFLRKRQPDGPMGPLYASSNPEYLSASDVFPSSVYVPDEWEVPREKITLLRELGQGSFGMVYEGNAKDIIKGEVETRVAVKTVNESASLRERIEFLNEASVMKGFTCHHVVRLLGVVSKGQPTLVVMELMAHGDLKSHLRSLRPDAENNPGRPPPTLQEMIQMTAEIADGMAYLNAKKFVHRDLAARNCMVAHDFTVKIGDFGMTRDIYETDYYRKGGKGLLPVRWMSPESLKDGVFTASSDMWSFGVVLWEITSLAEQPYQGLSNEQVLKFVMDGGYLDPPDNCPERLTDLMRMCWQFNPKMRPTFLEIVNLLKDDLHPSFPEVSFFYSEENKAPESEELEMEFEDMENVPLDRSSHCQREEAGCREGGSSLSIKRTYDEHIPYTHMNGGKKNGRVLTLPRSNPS

| Substance | Lipogenesis in rat adipocytes [Potency (%)] Mean Value (% of human insulin) |
| --- | --- |
| (A14E, A21G, A22(GQEP)19, 98K^, A99P, B25H, B29R, desB30 human insulin)/(226A, 227G, 228P, 234A, 235K, des447 hIgG4-Fc(228-447)) 3,5-bis[(2-acetyl)amino]benzoyl conjugate (from UniProt P01861 109-325) | 5.44 |
| A14E, B(-78K^), B(-77P), B(-1)(GQAP)19, B25H, B29R, desB30 human insulin/(227A, 234A, 235K, 297E, 315Q, 384Q, des447 hIgG4-Fc(228-447)) 4-[bis[2-[(2-acetyl)amino]ethyl]amino]-4-oxo-butanoyl conjugate (from UniProt P01861 108-325) | 0.87 |
